Laboratory results reported in patent US20030232087A1, “Bioactive agent release coating with aromatic poly(meth)acrylates” (priority 2002, published 2003).

What was measured:
[1] = Bioactive Agent Release Assay, dextran-TRITC from coated discs with polymer topcoat; format: physicochemical; details: pEVA (33% vinyl acetate)/pBMA topcoat coated at 48% relative humidity compared with 10% relative humidity; PBS, 37° C.; FIG. 2
Protocol: Two solutions were prepared in order to provide a coating composition of Applicant's copending application in the form of a two part system. The first solution was an aqueous solution containing the bioactive agent, dextran-TRITC, at a concentration of 15 mg/ml. The second solution contained poly(ethylene-co-vinylacetate) with a vinyl acetate concentration of 33% (w/w) and poly(n-butyl methacrylate), with approximate weight average molecular weight of 337 kilodaltons. The poly(n-butyl methacrylate) and poly(ethylene-co-vinylacetate) were purified by extraction with organic solvents to remove impurities, e.g., monomer residues. The polymers of the second solution were dissolved in tetrahydrofuran at a concentration of 10 mg/ml. […]
(§1) A suitable Bioactive Agent Release Assay, as describe herein, can be used to determine the extent and rate of bioactive agent release under physiological conditions. In general it is desirable that less than 50% of the total quantity of the bioactive agent be released in the first 24 hours. It is frequently desirable for quantities of bioactive agent to be released for a duration of at least 30 days.
Except as otherwise provided herein, each coated disc was placed in an amber vial with 4 mls of PBS. […] The concentration of bioactive agent in each PBS sample was determined using UV spectroscopy. […]

[2] = Bioactive Agent Release Assay, β-estradiol from coated stents; format: physicochemical; details: pEVA/pBMA 14/86% (w/w), coated at 0, 20, 30 or 40% relative humidity at 22° C.; PBS, 37° C.; FIG. 3
Protocol: A polymer coating solution containing poly(ethylene-co-vinylacetate) with a vinyl acetate concentration of 33% (w/w) and poly(n-butyl methacrylate) was prepared in 5 tetrahydrofuran at a polymer ratio of 14/86% (w/w), respectively. β-estradiol was added to the polymer coating solution after dissolution of the polymer in order to provide a coating composition of Applicant's above-captioned copending application in the form a one part system The bioactive agent/polymer ratio of the β-estradiol containing polymer solution was 30/70% (w/w) at a concentration of 10 mg/ml.
Eighteen-millimeter long, electropolished stainless steel stents with a 2 mm outer diameter were fabricated (Laserage Technology Corporation, Waukegan Ill.). […]
as §1, with “described” for “describe”, “that” for “than”
Except as otherwise provided herein, each coated stent was placed in an amber vial with 1.6 mls of PBS. […] The concentration of β-estradiol in each PBS sample was determined using UV spectroscopy.

| Compound | release rate of bioactive agent from composite coating [1] | β-estradiol rate of release from coating [2] |
| --- | --- | --- |
| tetramethylrhodamine isothiocyanate-Dextran [dextran-TRITC] | faster rate | – |
| C[C@]12CC[C@@H]3c4ccc(O)cc4CC[C@H]3[C@@H]1CC[C@@H]2O [β-estradiol] | – | different humidity level conditions can be used to control the β-estradiol rate of release |
